The text below walks through data of PMC3800664.

One may read the stoichiometry N as the number of molecules, sites or subunits per partner or assembly.

The target in experiment [1] is GST-TKJMΔ (intracellular domain of the EGFR lacking the first 13 amino acids of the juxtamembrane region, fused to glutathione S-transferase). The experiment can be described thus: cross-linking; total protein extracts of E. coli treated with BS3 or glutaraldehyde, western blot with anti-GST antibody; control without cross-linking agent. (Immunoblotting shows a protein as a band on a membrane.)

Experiment [2] addresses glutathione S-transferase (GST). The experiment is described as above.

Chain of glutathione S-transferase (GST) (P08515 2-218): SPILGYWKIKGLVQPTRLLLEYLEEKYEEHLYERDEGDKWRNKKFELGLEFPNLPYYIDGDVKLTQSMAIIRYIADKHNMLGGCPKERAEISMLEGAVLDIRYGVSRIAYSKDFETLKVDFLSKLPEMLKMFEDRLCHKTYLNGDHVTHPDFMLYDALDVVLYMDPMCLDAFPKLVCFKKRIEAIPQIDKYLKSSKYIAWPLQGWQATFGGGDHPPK

In experiment [1], “GST-TKJMΔ (intracellular domain of the EGFR lacking the first 13 amino acids of the juxtamembrane region, fused to glutathione S-transferase) (domain or fragment)” showed a stoichiometry N of 2. Substance “glutathione S-transferase (GST) (natural protein)” returned a stoichiometry N in experiment [2] of 2.
